{"source": "patent US20230192853A1", "target": "human CD8 on cells (HPBALL cells, TALL1 cells, CD8+ T cells of human whole blood and PBMCs) (human) (UniProt P01732)", "sequence (P01732 22-234 limits assumed)": "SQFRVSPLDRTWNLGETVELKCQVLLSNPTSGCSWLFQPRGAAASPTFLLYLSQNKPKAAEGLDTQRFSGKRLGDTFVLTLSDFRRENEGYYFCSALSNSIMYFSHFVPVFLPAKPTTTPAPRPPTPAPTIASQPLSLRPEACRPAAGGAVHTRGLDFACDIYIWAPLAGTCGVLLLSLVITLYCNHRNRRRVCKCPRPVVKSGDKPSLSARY", "assay": "flow cytometry of human whole blood, AF647-labeled OKT8 at 20 ng/mL against CD3 APC-Vio770", "data": [{"binder": "OKT8 anti-CD8 IgG labeled with ALEXA FLUOR 647 (antibody, from another filing, V domains shown) VH: EVQLQQSGAELVKPGASVKLSCTASGFNIKDTYIHFVRQRPEQGLEWIGRIDPANDNTLYASKFQGKATITADTSSNTAYMHLCSLTSGDTAVYYCGRGYGYYVFDHWGQGTTLTVSS VL: DVQINQSPSFLAASPGETITINCRTSRSISQYLAWYQEKPGKTNKLLIYSGSTLQSGIPSRFSGSGSGTDFTLTISGLEPEDFAMYYCQQHNENPLTFGAGTKLELK", "values": [{"measurement": "share of events in Q2 (CD3 positive, mAb/VHH AF647 positive)", "value": 19.7, "unit": "%"}, {"measurement": "share of events in Q3 (CD3 negative, mAb/VHH AF647 positive)", "value": 0.73, "unit": "%"}]}]}
